Results taken from patent US20260078159A1 (CUGENE, published 2026).
Values joined by “and” are separate entries in the source; they are usually repeats but may differ in a detail not shown here. Equal values may be shown once. Read-outs that look alike come from different tables or passages of the source.

Assays:
[1] = target: recombinant human PD1 protein (human, UniProt Q15116 25-170, limits assumed); assay: binding ELISA, plate-coated recombinant human PD1
Procedure: Antibodies of the invention were tested for their antigen binding activity by well-known methods such as enzyme-linked immunosorbent assay (ELISA). Briefly, Nunc Maxisorp plates (ThermoFisher) were coated with recombinant human PD1 protein in bicarbonate buffer, pH 9.4 (ThermoFisher), overnight at 4° C., using 1 μg of antigen per well (100 μL/well). After triple washing with PBS/0.05% Tween 20, plates were incubated with SuperBlock (ThermoFisher) for two hours at room temperature to block nonspecific binding. The PD1 antibodies, serially diluted three-fold with blocking buffer (PBS with 1% bovine serum albumin) were added to the plates (100 μL/well) post washing and incubated at room temperature for one hour. After another washing, antibodies were detected by incubating with a horseradish peroxidase (HRP)-conjugated goat anti-human IgG Fc antibody (ThermoFisher) diluted 1:5000 in blocking buffer (100 μL/well) for one hour at room temperature. After a final wash, TMB substrate (ThermoFisher) at 100 μL/well was added. Plates were sealed and left to incubate in dark for 5-20 minutes. The reaction was stopped by adding 2N sulfuric acid (Ricca Chemical) (50 μL/well), and the absorbance was measured at 450 nm with a plate reader. The curves were plotted, and the half-maximal effective concentration (EC₅₀) values were calculated using GraphPad Prism software.

human PD1 on cells [2] = target: T1, human PD1 on cells (human, UniProt Q15116 25-288); assay: cell-based or functional assay
human PD1 on cells [3] = target: T1, human PD1 on cells; assay: cell-based or functional assay; remark: listed apart in the source
human PD1 on cells [4] = target: T1, human PD1 on cells; assay: cell-based or functional assay; remark: listed apart in the source
human PD1 on cells [5] = target: T1, human PD1 on cells; assay: flow cytometry on PD1+ HEK293 cells, % positive cells
Procedure: (§1) Additionally, HEK 293T cells stably expressing human PD1 gene (Crown Bioscience) was used to determine the cell-based binding strength of the optimized PD1 antibodies by flow cytometry. After harvesting, HEK293-hPD1 cells were seeded into a 96-well U-bottom plate at 1×10⁵ cells/well (100 μL), incubated with Fc block (1:50) for 20 minutes at 4° C., and subsequently washed with FACS buffer (PBS, 1% FBS). Cells were then treated with three-fold serial dilutions of each antibody at concentrations ranging from 0.01-100 nM in FACS buffer for 30 minutes at 4° C. Subsequently, cells were washed twice with FACS buffer to remove unbound molecules, and 40 µL of the 1:100 diluted PE-labeled goat anti-human Fc secondary antibody (eBiosciences) was added to the cells. Following a 30-minute incubation at 4° C. and another double wash with FACS buffer, antibodies bound to the cells were detected with PE-labeled secondary antibody by flow cytometry (BD ACCURI-C6), and EC₅₀ values were calculated using GraphPad Prism software.

human PD1 on cells [6] = target: T1, human PD1 on cells; assay: flow cytometry on PD1+ HEK293 cells, MFI
Procedure: as §1

T1 sequence (Q15116 25-288 limits assumed): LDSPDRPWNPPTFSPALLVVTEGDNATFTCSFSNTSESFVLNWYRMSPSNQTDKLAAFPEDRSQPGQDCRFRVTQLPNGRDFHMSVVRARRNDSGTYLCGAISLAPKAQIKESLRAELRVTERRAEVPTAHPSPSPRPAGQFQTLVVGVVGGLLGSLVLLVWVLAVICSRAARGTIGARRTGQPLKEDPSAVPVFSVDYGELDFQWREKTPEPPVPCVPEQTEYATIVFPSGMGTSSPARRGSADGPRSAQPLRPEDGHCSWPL
Sequence of recombinant human PD1 protein (Q15116 25-170 limits assumed): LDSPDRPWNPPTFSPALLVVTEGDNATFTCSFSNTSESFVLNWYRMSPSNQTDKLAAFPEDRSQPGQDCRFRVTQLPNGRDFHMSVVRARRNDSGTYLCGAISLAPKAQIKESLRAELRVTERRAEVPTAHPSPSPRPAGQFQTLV

B1: P-1148 (antibody, human IgG1, kappa, V domains shown)
VH: QVQLVQSGVEVKKPGASVKVSCKASGYTFTNYYMYWVRQAPGQGLEWMGGINPSNGGTNFAQKFQGRVTLTTDSSTTTAYMELKSLQFDDTAVYYCARRDYRFDMGFDYWGQGTTVTVSS
VL: EIVLTQSPATLSLSPGERATLSCRASQGVSTSGYSYLHWYQQKPGQAPRLLIYLASYRASGVPARFSGSGSGTDFTLTISSLEPEDFAVYYCQHSRDLPLTFGGGTKVEIKR
notes: Full-length IgG1 L234A/L235A/G237A, kappa
- EC50 [1]: 0.093 nM
- PD1 blocking activity (reporter assay) EC50 (human PD1 on cells [2]): 1.56 nM
- PD1 blocking activity (reporter assay) Fold induction (human PD1 on cells [2]): 4.63 fold
- PD1 blocking activity (reporter assay) Vmax (human PD1 on cells [2]): 48200 RLU

B2: P-1150 (antibody, human IgG1, kappa, V domains shown)
VH: QVQLVQSGVEVKKPGASVKVSCKASGYTFTNYYMYWVRQAPGQGLEWMGGINPSNGGTNFAQKFQGRVTLTTDSSTTTAYMELKSLQFDDTAVYYCARRDYRFDMGFDYWGQGTTVTVSS
VL: EIVLTQSPATLSLSPGERATLSCRASQGVSTSGYSYLAWYQQKPGQAPRLLIYLASYRASGVPARFSGSGSGTDFTLTISSLEPEDFAVYYCQHSRDLPLTFGGGTKVEIKR
notes: as for B1
- EC50 [1]: 0.088 nM
- PD1 blocking activity (reporter assay) EC50 (human PD1 on cells [2]): 5.55 nM
- PD1 blocking activity (reporter assay) Fold induction (human PD1 on cells [2]): 3.49 fold
- PD1 blocking activity (reporter assay) Vmax (human PD1 on cells [2]): 36500 RLU

B3: P-1151 (antibody, human IgG1, kappa, V domains shown)
VH: QVQLVQSGVEVKKPGASVKVSCKASGYTFTNYYMYWVRQAPGQGLEWMGGINPSNGGTNYAQKFQGRVTLTTDSSTTTAYMELKSLQFDDTAVYYCARRDYRFDMGFDYWGQGTTVTVSS
VL: EIVLTQSPATLSLSPGERATLSCRASQGVSTSGYSYLHWYQQKPGQAPRLLIYLASYRASGVPARFSGSGSGTDFTLTISSLEPEDFAVYYCQHSRDLPLTFGGGTKVEIKR
notes: as for B1
- EC50 [1]: 0.065 nM
- PD1 blocking activity (reporter assay) EC50 (human PD1 on cells [2]): 2.83 nM
- PD1 blocking activity (reporter assay) Fold induction (human PD1 on cells [2]): 4.15 fold
- PD1 blocking activity (reporter assay) Vmax (human PD1 on cells [2]): 44300 RLU

B4: P-1153 (antibody, human IgG1, kappa, V domains shown)
VH: QVQLVQSGVEVKKPGASVKVSCKASGYTFTNYYMYWVRQAPGQGLEWMGGINPSNGGTNYAQKFQGRVTLTTDSSTTTAYMELKSLQFDDTAVYYCARRDYRFDMGFDYWGQGTTVTVSS
VL: EIVLTQSPATLSLSPGERATLSCRASQGVSTSGYSYLAWYQQKPGQAPRLLIYLASYRASGVPARFSGSGSGTDFTLTISSLEPEDFAVYYCQHSRDLPLTFGGGTKVEIKR
notes: as for B1
- EC50 [1]: 0.11 nM
- PD1 blocking activity (reporter assay) EC50 (human PD1 on cells [2]): 9.88 nM
- PD1 blocking activity (reporter assay) Fold induction (human PD1 on cells [2]): 3.04 fold
- PD1 blocking activity (reporter assay) Vmax (human PD1 on cells [2]): 30800 RLU
- decrease in PD1 blockade potency (EC50) compared to P-0734 (human PD1 on cells [3]): ~20 fold

B5: P-1127 (antibody, human IgG1, kappa, V domains shown)
VH: QVQLVQSGVEVKKPGASVKVSCKASGYTFTNYYMYWVRQAPGQGLEWMGGINPSNGGTNFNEKFKNRVTLTTDSSTTTAYMELKSLQFDDTAVYYCARRDYRFDMGFDYWGQGTTVTVSS
VL: EIVLTQSPATLSLSPGERATLSCRASQGVSTSGYSYLHWYQQKPGQAPRLLIYLASYRESGVPARFSGSGSGTDFTLTISSLEPEDFAVYYCQHSRDLPLTFGGGTKVEIKR
- PD1 blockade reporter assay EC50 (human PD1 on cells [3]): 0.39 nM and 0.54 nM

B6: P-1129 (antibody, human IgG1, kappa, V domains shown)
VH: QVQLVQSGVEVKKPGASVKVSCKASGYTFTNYYMYWVRQAPGQGLEWMGGINPSNGGTNFNEKFKNRVTLTTDSSTTTAYMELKSLQFDDTAVYYCARRDYRFDMGFDYWGQGTTVTVSS
VL: EIVLTQSPATLSLSPGERATLSCRASQGVSTSGYSYLHWYQQKPGQAPRLLIYLASYRASGVPARFSGSGSGTDFTLTISSLEPEDFAVYYCQHSRDLPLTFGGGTKVEIKR
- PD1 blockade reporter assay EC50 (human PD1 on cells [3]): 0.58 nM

B7: P-1174 (antibody, human IgG1, kappa, V domains shown)
VH: QVQLVQSGVEVKKPGASVKVSCKASGYTFTNYYMYWVRQAPGQGLEWMGGINPSNGGTNFAQKFQGRVTLTTDSSTTTAYMELKSLQFDDTAVYYCARRDYRFDMGFDYWGQGTTVTVSS
VL: EIVLTQSPATLSLSPGERATLSCRASQGVSTSGYSYLHWYQQKPGQAPRLLIYLASYRESGVPARFSGSGSGTDFTLTISSLEPEDFAVYYCQHSRDLPLTFGGGTKVEIKR
- PD1 blockade reporter assay EC50 (human PD1 on cells [3]): 0.67 nM

B8: P-1175 (antibody, human IgG1, kappa, V domains shown)
VH: EVQLLESGGGLVQPGGSLRLSCAASGFTFTNYYMYWVRQAPGKGLEWVSGINPSNGGTNYADKFKGRFTISRDNSKNTLYLQMNSLRAEDTAVYYCARRDYRFDMGFDYWGQGTLVTVSS
VL: EIVLTQSPATLSLSPGERATLSCRASKGVSTSGYSYLHWYQQKPGQAPRLLIYLASYLESGVPARFSGSGSGTDFTLTISSLEPEDFAVYYCQHSRDLPLTFGGGTKVEIKR
- PD1 blocking activity (reporter assay) EC50 (human PD1 on cells [4]): 6.21 nM
- PD1 blocking activity (reporter assay) Fold induction (human PD1 on cells [4]): 4.07 fold
- PD1 blocking activity (reporter assay) Vmax (human PD1 on cells [4]): 42000 RLU
- decrease in Emax and fold induction compared to P-0734 (human PD1 on cells [3]): 25%
- reduction in potency (EC50) compared to P-0734 (human PD1 on cells [3]): 10 fold

B9: P-1181 (antibody, human IgG1, kappa, V domains shown)
VH: EVQLLESGGGLVQPGGSLRLSCAASGFTFTNYYMYWVRQAPGKGLEWVSGINPSNGGTNFNDSVKGRFTISRDNSKNTLYLQMNSLRAEDTAVYYCARRDYRFDMGFDYWGQGTLVTVSS
VL: EIVLTQSPATLSLSPGERATLSCRASKGVSTSGYSYLHWYQQKPGQAPRLLIYLASYLESGVPARFSGSGSGTDFTLTISSLEPEDFAVYYCQHSRDLPLTFGGGTKVEIKR
- PD1 blocking activity (reporter assay) EC50 (human PD1 on cells [4]): 9.18 nM
- PD1 blocking activity (reporter assay) Fold induction (human PD1 on cells [4]): 3.26 fold
- PD1 blocking activity (reporter assay) Vmax (human PD1 on cells [4]): 29600 RLU
- drop in potency compared to P-0734 (human PD1 on cells [3]): 15 fold

B10: P-1176 (antibody, human IgG1, kappa, V domains shown)
VH: EVQLLESGGGLVQPGGSLRLSCAASGFTFTNYYMYWVRQAPGKGLEWVSGINPSNGGTNYADKFKGRFTLSTDSSKNTLYLQMNSLRAEDTAVYYCARRDYRFDMGFDYWGQGTLVTVSS
VL: EIVLTQSPATLSLSPGERATLSCRASKGVSTSGYSYLHWYQQKPGQAPRLLIYLASYLESGVPARFSGSGSGTDFTLTISSLEPEDFAVYYCQHSRDLPLTFGGGTKVEIKR
- PD1 blocking activity (reporter assay) EC50 (human PD1 on cells [4]): 0.67 nM
- PD1 blocking activity (reporter assay) Fold induction (human PD1 on cells [4]): 5.27 fold
- PD1 blocking activity (reporter assay) Vmax (human PD1 on cells [4]): 52100 RLU

B11: P-1177 (antibody, human IgG1, kappa, V domains shown)
VH: EVQLLESGGGLVQPGGSLRLSCAASGFTFTNYYMYWVRQAPGKGLEWMGGINPSNGGTNYADKFKGRFTISRDNSKNTLYLQMNSLRAEDTAVYYCARRDYRFDMGFDYWGQGTLVTVSS
VL: EIVLTQSPATLSLSPGERATLSCRASKGVSTSGYSYLHWYQQKPGQAPRLLIYLASYLESGVPARFSGSGSGTDFTLTISSLEPEDFAVYYCQHSRDLPLTFGGGTKVEIKR
- PD1 blocking activity (reporter assay) EC50 (human PD1 on cells [4]): 1.51 nM
- PD1 blocking activity (reporter assay) Fold induction (human PD1 on cells [4]): 4.77 fold
- PD1 blocking activity (reporter assay) Vmax (human PD1 on cells [4]): 48100 RLU

B12: P-1178 (antibody, human IgG1, kappa, V domains shown)
VH: EVQLLESGGGLVQPGGSLRLSCAASGFTFTNYYMYWVRQAPGKGLEWMGGINPSNGGTNYADKFKGRFTLSTDSSKNTLYLQMNSLRAEDTAVYYCARRDYRFDMGFDYWGQGTLVTVSS
VL: EIVLTQSPATLSLSPGERATLSCRASKGVSTSGYSYLHWYQQKPGQAPRLLIYLASYLESGVPARFSGSGSGTDFTLTISSLEPEDFAVYYCQHSRDLPLTFGGGTKVEIKR
- PD1 blocking activity (reporter assay) EC50 (human PD1 on cells [4]): 0.68 nM
- PD1 blocking activity (reporter assay) Fold induction (human PD1 on cells [4]): 5.5 fold
- PD1 blocking activity (reporter assay) Vmax (human PD1 on cells [4]): 53100 RLU

B13: P-1198 (antibody, human IgG1, kappa, V domains shown)
VH: EVQLLESGGGLVQPGGSLRLSCAASGFTFTNYYMYWVRQAPGKGLEWVSGINPSNGGTNFADKFKGRFTISRDSSKNTLYLQMNSLRAEDTAVYYCARRDYRFDMGFDYWGQGTLVTVSS
VL: EIVLTQSPATLSLSPGERATLSCRASQGVSTSGYSYLHWYQQKPGQAPRLLIYLASYRESGVPARFSGSGSGTDFTLTISSLEPEDFAVYYCQHSRDLPLTFGGGTKVEIKR
notes: as for B1
- EC50 (human PD1 on cells [5]): 0.019 nM
- EC50 (human PD1 on cells [6]): 0.087 nM

B14: P-1238 (antibody, human IgG1, kappa, V domains shown)
VH: EVQLLESGGGLVQPGGSLRLSCAASGFTFTNYYMYWVRQAPGKGLEWMGGINPSNGGTNYADKFKGRFTLSTDSSKNTLYLQMNSLRAEDTAVYYCARRDYRFDMGFDYWGQGTLVTVSS
VL: EIVLTQSPATLSLSPGERATLSCRASQGVSTSGYSYLHWYQQKPGQAPRLLIYLASYRESGVPARFSGSGSGTDFTLTISSLEPEDFAVYYCQHSRDLPLTFGGGTKVEIKR
- PD1 blockade reporter assay EC50 (human PD1 on cells [3]): 0.73 nM
